In article PMC5542437, “Assembly and stoichiometry of the core structure of the bacterial flagellar type III export gate complex” (PLoS Biology, 2017):
Where a chain is given by its changes, count along the chain named. Names may count otherwise.

T1: His-St-FliP (Salmonella FliP with a hexahistidine tag inserted between Gln-22 and Leu-23) (Salmonella enterica, UniProt P54700 22-245)
T1 construct: FliP, Salmonella enterica, 25-kDa transmembrane protein; mature form studied; the signal peptide (Met-1 to Gln-22) is cleaved during membrane insertion; tag LHHHHHH inserted between Gln-22 and Leu-23; Hexameric ring in SEC peak 2; also called His-FliP; FliP6 ring; source: Salmonella SJW1368, membranes solubilised with 1% DDM or 1% LMNG; purified (Ni-NTA, SEC); not shown: His6 (LHHHHHH), internal …
T1 sequence: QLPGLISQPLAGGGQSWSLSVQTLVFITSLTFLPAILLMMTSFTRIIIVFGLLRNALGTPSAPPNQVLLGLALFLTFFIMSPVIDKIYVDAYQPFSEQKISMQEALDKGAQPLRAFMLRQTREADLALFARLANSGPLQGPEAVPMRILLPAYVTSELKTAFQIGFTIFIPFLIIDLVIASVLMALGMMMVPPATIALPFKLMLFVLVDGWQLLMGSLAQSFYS

T2: FlhA (Salmonella enterica, UniProt P40729 1-692)
T2 construct: FlhA, Salmonella enterica, transmembrane export gate protein; source: Salmonella SJW1368, pTrc99A-based plasmid, in DDM- or LMNG-solubilised membranes; co-purified
T2 sequence: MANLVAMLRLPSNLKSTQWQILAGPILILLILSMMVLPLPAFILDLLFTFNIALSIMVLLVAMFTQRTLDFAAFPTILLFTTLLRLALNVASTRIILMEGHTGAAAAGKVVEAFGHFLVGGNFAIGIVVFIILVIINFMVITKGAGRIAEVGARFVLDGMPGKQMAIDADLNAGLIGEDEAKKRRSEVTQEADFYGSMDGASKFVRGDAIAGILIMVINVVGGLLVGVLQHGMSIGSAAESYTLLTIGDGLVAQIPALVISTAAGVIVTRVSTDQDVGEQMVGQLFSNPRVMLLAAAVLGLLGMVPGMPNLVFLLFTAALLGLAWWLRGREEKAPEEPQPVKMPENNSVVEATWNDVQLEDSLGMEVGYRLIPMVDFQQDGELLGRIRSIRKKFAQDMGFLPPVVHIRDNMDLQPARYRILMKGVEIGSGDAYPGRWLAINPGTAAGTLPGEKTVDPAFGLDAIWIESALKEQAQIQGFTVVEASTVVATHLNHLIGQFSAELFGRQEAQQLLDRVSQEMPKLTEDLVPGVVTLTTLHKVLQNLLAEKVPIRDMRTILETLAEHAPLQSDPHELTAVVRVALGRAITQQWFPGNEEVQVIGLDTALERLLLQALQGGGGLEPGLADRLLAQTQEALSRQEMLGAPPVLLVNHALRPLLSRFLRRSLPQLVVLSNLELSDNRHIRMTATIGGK

B1: FliR-FLAG (natural protein)
chain: MIQVTSEQWLYWLHLYFWPLLRVLALISTAPILSERAIPKRVKLGLGIMITLVIAPSLPANDTPLFSIAALWLAMQQILIGIALGFTMQFAFAAVRTAGEFIGLQMGLSFATFVDPGSHLNMPVLARIMDMLAMLLFLTFNGHLWLISLLVDTFHTLPIGSNPVNSNAFMALARAGGLIFLNGLMLALPVITLLLTLNLALGLLNRMAPQLSIFVIGFPLTLTVGIMLMAALMPLIAPFCEHLFSEIFNLLADIVSEMPINNNP
notes: FliR, Salmonella enterica, transmembrane export gate protein; also called FLAG-FliR (as printed in the methods); source: Salmonella SJW1368, pTrc99A-based plasmid, in DDM- or LMNG-solubilised membranes; co-purified (Ni-NTA, anti-FLAG gel, SEC)
B2: Tm-FliPP (periplasmic domain of FliP of Thermotoga maritima) (domain or fragment)
chain: YNNAITPYLNKETGYQEMFQRVNTRIREFMINELKNHHNEDNVFMLAKNSGIEIAKIEEAPNAVLIPAFVLGELEVAFK
notes: FliP of Thermotoga maritima (printed 'T. maritia'), periplasmic domain between TM-2 and TM-3; the atomic model holds Thr-122 to Lys-188; the N-terminal 13 residues of the construct are invisible; also called FliPP of T. maritia; Tm-FliPP tetramer; source: expression and purification described previously [37]
B3: FlhB (natural protein)
chain: MAEESDDDKTEAPTPHRLEKAREEGQIPRSRELTSLLILLVGVCIIWFGGESLARQLAGMLSAGLHFDHRMVNDPNLILGQIILLIKAAMMALLPLIAGVVLVALISPVMLGGLIFSGKSLQPKFSKLNPLPGIKRMFSAQTGAELLKAVLKSTLVGCVTGFYLWHHWPQMMRLMAESPIVAMGNALDLVGLCALLVVLGVIPMVGFDVFFQIFSHLKKLRMSRQDIRDEFKESEGDPHVKGKIRQMQRAAAQRRMMEDVPKADVIVTNPTHYSVALQYDENKMSAPKVVAKGAGLIALRIREIGAEHRVPTLEAPPLARALYRHAEIGQQIPGQLYAAVAEVLAWVWQLKRWRLAGGQRPPQPENLPVPEALDFMNEKNTDG
notes: FlhB, Salmonella enterica, transmembrane export gate protein; its C-terminal cytoplasmic domain undergoes autocleavage between Asp-269 and Pro270 as printed; source: Salmonella SJW1368, pTrc99A-based plasmid, in DDM- or LMNG-solubilised membranes; co-purified
B4: FliF (natural protein)
chain: MSATASTATQPKPLEWLNRLRANPRIPLIVAGSAAVAIVVAMVLWAKTPDYRTLFSNLSDQDGGAIVAQLTQMNIPYRFANGSGAIEVPADKVHELRLRLAQQGLPKGGAVGFELLDQEKFGISQFSEQVNYQRALEGELARTIETLGPVKSARVHLAMPKPSLFVREQKSPSASVTVTLEPGRALDEGQISAVVHLVSSAVAGLPPGNVTLVDQSGHLLTQSNTSGRDLNDAQLKFANDVESRIQRRIEAILSPIVGNGNVHAQVTAQLDFANKEQTEEHYSPNGDASKATLRSRQLNISEQVGAGYPGGVPGALSNQPAPPNEAPIATPPTNQQNAQNTPQTSTSTNSNSAGPRSTQRNETSNYEVDRTIRHTKMNVGDIERLSVAVVVNYKTLADGKPLPLTADQMKQIEDLTREAMGFSDKRGDTLNVVNSPFSAVDNTGGELPFWQQQSFIDQLLAAGRWLLVLVVAWILWRKAVRPQLTRRVEEAKAAQEQAQVRQETEEAVEVRLSKDEQLQQRRANQRLGAEVMSQRIREMSDNDPRVVALVIRQWMSNDHE
notes: FliF, Salmonella enterica, transmembrane protein that forms the MS ring; also called MS ring; source: Salmonella SJW1368, pTrc99A-based plasmid, in DDM-solubilised membranes
B5: FliG-His (natural protein)
chain: MSNLSGTDKSVILLMTIGEDRAAEVFKHLSTREVQALSTAMANVRQISNKQLTDVLSEFEQEAEQFAALNINANEYLRSVLVKALGEERASSLLEDILETRDTTSGIETLNFMEPQSAADLIRDEHPQIIATILVHLKRSQAADILALFDERLRHDVMLRIATFGGVQPAALAELTEVLNGLLDGQNLKRSKMGGVRTAAEIINLMKTQQEEAVITAVREFDGELAQKIIDEMFLFENLVDVDDRSIQRLLQEVDSESLLIALKGAEPPLREKFLRNMSQRAADILRDDLANRGPVRLSQVENEQKAILLIVRRLAETGEMVIGSGEDTYV
notes: FliG, Salmonella enterica, C ring protein; also called His-FliG; source: Salmonella SJW1368, pTrc99A-based plasmid, in DDM-solubilised membranes; not shown: His tag, C-terminal, kept
B6: His-FliP(F137A) (natural protein)
chain: T1 sequence with F116A
notes: FliP, Salmonella enterica; mature form; signal peptide (Met-1 to Gln-22) cleaved; His tag inserted between Gln-22 and Leu-23; source: Salmonella SJW1368, co-expressed with FliO, DDM-solubilised membranes; purified (Ni-NTA, SEC); not shown: His6 (LHHHHHH), internal (after residue 22), kept
B7: His-FliP(E178A) (natural protein)
chain: T1 sequence with E157A
notes: as for B6
B8: His-FliP(F150A) (natural protein)
chain: T1 sequence with F129A
notes: FliP, Salmonella enterica; mature form; signal peptide (Met-1 to Gln-22) cleaved; His tag inserted between Gln-22 and Leu-23; also called His-FliP(F1507A) [sic]; source: Salmonella SJW1368, co-expressed with FliO, DDM-solubilised membranes; purified (Ni-NTA, SEC); not shown: His6 (LHHHHHH), internal (after residue 22), kept

What was measured:
[1] = molecular target: T1, His-St-FliP (Salmonella FliP with a …); experiment: pull-down; copurification from Salmonella SJW1368 co-expressing His-FliP with other export gate proteins; membranes solubilised with 1% DDM; Ni affinity, then anti-FLAG M2 affinity (eluted with FLAG peptide), then SEC on Superdex 200 10/300; SDS-PAGE with CBB; details: partners not purified
[2] = molecular target: the molecule itself; experiment: crystal structure; Tm-FliPP, 2.4 Å, SAD phasing with a Se-Met derivative; 2 tetramers in the asymmetric unit
FlhA = molecular target: T2, FlhA; experiment: SEC; Ni-purified FlhA/FliF/FliG-His complex on Superdex 200 10/300 (DDM); main peak examined by negative-stain EM; details: both partners purified
[3] = molecular target: the molecule itself; experiment: negative-stain electron microscopy with 2D class averaging; purified SEC peak fractions, 1.0% uranyl acetate, 100 kV; autocorrelation analysis for the rotational symmetry of the FliP ring
FliF = molecular target: B4; experiment: pull-down; Ni affinity copurification with FliG-His from SJW1368 co-expressing FlhA, FlhB, FliF, FliG-His, FliO, FliP, HA-FliQ and FliR-FLAG; membranes solubilised with 1% DDM; details: partners not purified
[4] = molecular target: the molecule itself; experiment: SEC; Ni-purified His-FliP or FliO/His-FliP complexes (wild type and mutants) on Superdex 200 10/300; 20 mM Tris-HCl pH 8.0, 300 mM NaCl, 2 mM EDTA, 5% glycerol, 0.1% DDM

B1
stoichiometry N [1]: ~2 copies of FliR per 6 copies of FliP

B2
stoichiometry N [2]: 4

B3
stoichiometry N [1]: ~2 copies of FlhB per 6 copies of FliP

B4
binding result (FlhA): binds | binding result [3]: binds

B5
binding result (FliF): binds

B6
stoichiometry N [4]: 2

B7
stoichiometry N [4]: 2

B8
stoichiometry N [4]: 2
